Reference: the supplement of paper PMC10567573

B1: MED27 (parent)
chain: YNENVYTEDGKLDIWSKSNYQVFQ
B2: ZBTB22 (parent)
chain: AVLAASSPYFHDQVLLKGMTSISL

Variants of: B1
Assay: protein stability index of a GFP-peptide fusion (GPS, HEK-293T) (PSI 1-6); higher = more stable
Conditions: c terminus: a fixed tail appended
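Further: lentivirally expressed fusions sorted by FACS into six bins by GFP to DsRed ratio, PSI derived from sequencing read proportions per bin multiplied by bin number.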

Protein stability index of substitutions, site by site:
Y1: N 3.35 | R 3.11 | G 3.7 | P 3.52 | C 2.9 | E 4.04 | L 3.2 | F 2.27 | D 3.38 | H 3.23 | V 3.67 | Q 3.74 | I 2.5 | M 3.52 | S 3.23 | W 2.93 | A 2.86 | T 3.4 | K 3.28
T7: W 1.07 | F 2.13 | Y 2.46 | R 2.06 | M 1.75 | K 2.35 | P 2.21 | C 2.63 | A 2.21 | V 2.05 | E 2.96 | Q 2.48 | G 2.53 | N 2.14 | S 1.95 | H 2.11 | I 1.72 | D 2.7 | L 1.8
E3: H 1.92 | I 1.81 | L 1.48 | K 2.31 | Y 1.64 | T 1.88 | W 1.44 | Q 2.17 | R 1.41 | P 1.31 | F 1.8 | D 1.48 | S 1.76 | N 2.36 | M 1.59 | V 1.69 | C 2.04 | G 2.34 | A 1.88
L12: H 2.07 | S 2.37 | C 2.33 | Q 3.1 | D 3.34 | G 2.63 | I 2.23 | W 2.2 | F 2.19 | T 2.21 | Y 1.93 | R 2.01 | A 2.5 | P 2.39 | E 3.14 | M 2.07 | N 2.37 | K 2.33 | V 2.58
V5: S 2.34 | R 2.25 | T 2.67 | Q 3.06 | E 3.28 | H 2.95 | K 2.15 | D 3.26 | M 2.1 | Y 1.97 | I 2.73 | P 2.35 | G 2.71 | N 3.01 | C 2.05 | A 2.47 | W 1.91 | L 2.21 | F 1.72
Y6: L 2.38 | G 2.57 | H 2.95 | T 2.98 | M 2.17 | N 3 | Q 2.76 | I 2.43 | C 2.84 | K 2.34 | V 3.02 | S 3.26 | E 3.17 | P 2.68 | F 2.55 | A 2.62 | D 3.3 | R 2.48 | W 2.04
E8: P 1.68 | D 1.84 | Q 1.82 | H 2.07 | R 1.55 | Y 1.97 | S 1.7 | M 1.57 | T 1.93 | I 1.29 | F 1.69 | W 1.64 | V 1.31 | N 2.62 | L 1.92 | K 1.86 | C 2.18 | A 2.33 | G 1.64
D9: G 1.63 | V 1.98 | W 2.01 | M 1.69 | N 1.76 | S 1.96 | F 1.76 | P 2.03 | Y 2.03 | I 1.71 | T 1.8 | A 1.65 | C 1.64 | E 2.37 | R 1.7 | H 1.97 | K 2.02 | Q 1.55 | L 1.77
N2: M 2.01 | L 1.68 | A 2.53 | T 1.95 | R 2.4 | F 2.26 | W 1.69 | D 3.6 | Q 2.33 | S 2.02 | I 1.68 | P 2.09 | Y 2.1 | C 2.47 | V 3.18 | H 1.75 | K 2.91 | E 3.95 | G 1.75
D13: I 2.06 | L 1.69 | M 1.79 | K 2.55 | C 2.09 | E 2.36 | G 1.88 | F 1.84 | A 2.12 | H 2.44
G10: F 1.65 | Q 2.5 | I 1.93 | T 2.45 | A 2.3 | M 2.73 | Y 1.76 | N 2.54 | D 2.96 | S 2.23 | L 2.17 | V 1.96 | R 2.21 | C 1.97 | P 2.42 | H 2.61 | E 2.65 | K 2.91 | W 1.99
K11: S 2.45 | C 1.78 | F 2.22 | Q 2.38 | W 2 | Y 1.94 | V 2.04 | E 2.93 | L 1.59 | R 1.96 | T 2.43 | H 2.2 | A 2.27 | P 2.13 | D 3.48 | G 2.22 | N 2.56 | I 2.71 | M 2.32
N4: G 2.37 | H 2.04 | K 1.8 | V 1.89 | E 2.73 | P 1.96 | L 1.99 | R 2.31 | A 2.54 | D 2.21 | M 2 | Y 1.47 | C 2.29 | F 1.93 | Q 2.53 | W 1.15 | T 2.21 | I 2.04 | S 1.52

Variants of: B2
Assay: as above
Conditions: c terminus: a fixed tail appended

Protein stability index, by site and new letter:
H11: P 2.11 | L 1.89 | M 4.12
G18: D 3.05 | W 2.61 | Y 3.35 | F 3.77
K17: N 1.43 | A 1.94
S23: I 2.51 | P 3.55 | H 2.46 | K 2.8
A5: H 2.04 | W 1.88 | T 3.75 | N 2.66 | L 2.21
S6: Q 3.02 | K 2.05 | N 3.54
M19: C 3.68 | R 2.92 | Q 1.46 | A 2.09 | E 1.69 | S 2.68
S7: L 2.91 | T 3.75
P8: G 3.22
V2: E 1.41 | I 2.75 | D 2.17 | W 1.79 | K 1.97 | Q 1.62
L15: H 1.4 | P 1.3 | C 1.87 | A 1.66 | E 1.38
Y9: V 2.54 | E 2.05 | N 2.96 | H 1.33 | A 1.37
T20: I 2.3 | Q 2.14 | V 4.26
I22: H 2.43 | C 1.83
D12: N 1.98 | T 2.95
V14: Y 2.25 | H 2.37 | Q 1.73 | P 1.63 | N 2.07 | T 2.96
S21: G 2.85 | K 2.35 | E 1.95 | C 3.52
A1: M 2.57 | E 4.15 | K 3.83
L3: T 2.38 | E 2.04 | H 2.22 | M 3.26 | C 2.92 | S 1.45 | A 2.48
Q13: D 3.61 | M 2.94 | T 3.86 | L 1.43 | P 1.64
F10: S 1.87 | D 2.04 | P 1 | M 2.72
L24: S 1.15 | T 1.27 | E 1.52 | R 1.84
L16: D 1.93 | Y 3.11 | M 3.83 | C 3.99 | F 2.47
A4: E 2.48 | Y 2 | F 2.24 | L 2.9 | P 1.05
